Test results: WO2017055393A1 (dated 2017)

Biological target: T1, human Tim-3 (T cell Immunoglobulin- and Mucin domain-containing molecule 3) (human, UniProt Q8TDQ0 22-301)
T1 sequence (looked up): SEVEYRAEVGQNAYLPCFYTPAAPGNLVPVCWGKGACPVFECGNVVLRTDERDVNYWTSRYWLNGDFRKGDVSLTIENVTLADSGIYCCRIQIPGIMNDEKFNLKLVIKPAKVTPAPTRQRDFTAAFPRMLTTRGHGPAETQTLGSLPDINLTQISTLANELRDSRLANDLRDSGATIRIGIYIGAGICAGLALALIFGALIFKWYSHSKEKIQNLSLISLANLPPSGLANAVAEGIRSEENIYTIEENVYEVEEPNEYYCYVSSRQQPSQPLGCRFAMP
Assay: cell-based or functional assay

B1: TIM3 TCB molecule: anti-Tim-3 / anti-CD3 T cell bispecific (TCB) molecule, "2+1 IgG CrossFab, inverted" with charge modifications (VH/VL exchange in CD3 … (bispecific antibody)
heavy 1: QVTLKESGPGILQPSQTLRLTCSFSGFSLSTSGMSVGWIRQPSGKGLEWLAHIWLNDDVFFNPALKSRLTISKDTSNNQVFLQIASVVTADTATYYCVRANGYLYALDYWGQGTSVTVSSASTKGPSVFPLAPSSKSTSGGTAALGCLVEDYFPEPVTVSWNSGALTSGVHTFPAVLQSSGLYSLSSVVTVPSSSLGTQTYICNVNHKPSNTKVDEKVEPKSCDKTHTCPPCPAPEAAGGPSVFLFPPKPKDTLMISRTPEVTCVVVDVSHEDPEVKFNWYVDGVEVHNAKTKPREEQYNSTYRVVSVLTVLHQDWLNGKEYKCKVSNKALGAPIEKTISKAKGQPREPQVCTLPPSRDELTKNQVSLSCAVKGFYPSDIAVEWESNGQPENNYKTTPPVLDSDGSFFLVSKLTVDKSRWQQGNVFSCSVMHEALHNHYTQKSLSLSP
heavy 2: not shown
light 1: EVQLLESGGGLVQPGGSLRLSCAASGFTFSTYAMNWVRQAPGKGLEWVSRIRSKYNNYATYYADSVKGRFTISRDDSKNTLYLQMNSLRAEDTAVYYCVRHGNFGNSYVSWFAYWGQGTLVTVSSASVAAPSVFIFPPSDEQLKSGTASVVCLLNNFYPREAKVQWKVDNALQSGNSQESVTEQDSKDSTYSLSSTLTLSKADYEKHKVYACEVTHQGLSSPVTKSFNRGEC
light 2: QIVLTQSPAIMSASPGQKVTITCSASSSVNYTQWYQQKLGSSPKLWIYDAFKLAPGVPARFSGSGTGTSYSLTISSMEAEDAASYFCHQWSSYPWTFGGGTKLEIKRTVAAPSVFIFPPSDRKLKSGTASVVCLLNNFYPREAKVQWKVDNALQSGNSQESVTEQDSKDSTYSLSSTLTLSKADYEKHKVYACEVTHQGLSSPVTKSFNRGEC
Cytotoxic activity TCB (LDH), IC50 pM, CMK cells (AML): 300 pM
Cytotoxic activity TCB (LDH), IC50 pM, EOL-1* cells (AML; 24h pre-treated with 10 ng/ml PMA): 300 pM
Cytotoxic activity TCB (LDH), IC50 pM, KG-1 cells (AML): 1000 pM
Cytotoxic activity TCB (LDH), IC50 pM, Karpas-299 cells (NHTCL): 500 pM
Cytotoxic activity TCB (LDH), IC50 pM, Kasumi-1 cells (AML): 3000 pM
Cytotoxic activity TCB (LDH), IC50 pM, Pfeiffer cells (NHBCL): 10 pM
Cytotoxic activity TCB (LDH), IC50 pM, RPMI-8226 cells (MM): 100 pM
Cytotoxic activity TCB (LDH), IC50 pM, SR cells (LCIBL): 100 pM
EC50 of tumor cell lysis, 24 h LDH release, CHO K1 cells stably expressing human TIM-3, thawed expanded T cells, E:T 1:1: 3 pM
EC50 of tumor cell lysis, 24 h LDH release, Pfeiffer cells, thawed expanded T cells, E:T 1:1: 60 pM
